Usually EC50 (read off the curve) stands for the concentration at which the effect is half-maximal. A higher EC50 (read off the curve) goes with weaker potency. The EC50 is the concentration needed to bring the measured effect to its halfway point.

Experiment [1] addresses T1, murine FAP (mFAP) (murine, UniProt P97321 1-761).
T1 construct: Expressed on 3T3-mFAP / NIH/3T3-moFAP cl.34 cells; also called mouse FAP; moFAP
Description: flow cytometry on NIH/3T3-moFAP cells stably overexpressing murine FAP, PE secondary, axis % Binding to murine FAP. How it is done:
(§1) Briefly, adherent MKN45, NIH/3T3-moFAP or CHO-mICOS cells were detached using trypsin (Gibco, 25300-054), washed and 0.1 million cells were transferred into a 96-round bottom well-plate. […] Thereafter, cells were washed twice with cold PBS 0.1% BSA and further incubated for further 30 min at 4° C. with a labeled secondary antibody (PE-conjugated, #715-116-150 from Jackson Immuno Research Lab, diluted 1 to 50 in FACS buffer). Cells were washed with FACS buffer and the staining was fixed for 20 min at 4° C. in the dark, using 75 μl of 1% PFA in FACS buffer per well. Cells were washed twice with FACS Buffer and re-suspended in FACS Buffer for analysis.
(§2) Fluorescence was analyzed by FACS using a FACS Fortessa (Software FACS Diva). Binding curves and EC₅₀ values were obtained using GraphPadPrism6.
In general terms: Flow cytometry measures light scatter and fluorescence of single cells or particles in a stream.

Experiment [2] concerns the target T2, murine ICOS (murine, UniProt Q9WVS0 21-200).
T2 sequence: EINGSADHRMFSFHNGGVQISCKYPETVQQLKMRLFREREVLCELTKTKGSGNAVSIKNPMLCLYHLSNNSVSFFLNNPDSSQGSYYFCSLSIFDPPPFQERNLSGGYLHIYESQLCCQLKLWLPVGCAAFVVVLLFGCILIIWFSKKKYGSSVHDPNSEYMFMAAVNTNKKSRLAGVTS
Description: cell-based or functional assay.

Experiment [3] has as its target T1, murine FAP (mFAP). Nature of the experiment: flow cytometry on NIH/3T3-moFAP cl.34 cells. How it is done:
as §1, §2

Experiment [4] concerns the target T2, murine ICOS. Nature of the experiment: flow cytometry on CHO cells expressing murine ICOS. How it is done:
as §1, §2

Experiment [5] addresses T2, murine ICOS. Description: flow cytometry on CHO cells stably overexpressing murine ICOS, PE secondary, axis % Binding to murine ICOS. How it is done:
as §1, §2

The target of a further experiment is T3, human ICOS (human, UniProt Q9Y6W8 21-199).
T3 sequence: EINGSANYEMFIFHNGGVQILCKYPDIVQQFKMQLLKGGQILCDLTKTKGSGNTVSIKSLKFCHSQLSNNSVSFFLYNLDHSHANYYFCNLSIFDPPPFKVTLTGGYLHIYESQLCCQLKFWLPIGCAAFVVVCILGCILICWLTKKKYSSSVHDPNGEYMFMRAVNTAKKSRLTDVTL
Nature of the experiment: cell-based or functional assay.

For another experiment, the target named is T4, human CEA (human, UniProt P06731 35-685).
T4 construct: Endogenous CEA on MKN45 human gastric adenocarcinoma cells; also called Carcinoembryonic antigen; CEACAM5
T4 sequence: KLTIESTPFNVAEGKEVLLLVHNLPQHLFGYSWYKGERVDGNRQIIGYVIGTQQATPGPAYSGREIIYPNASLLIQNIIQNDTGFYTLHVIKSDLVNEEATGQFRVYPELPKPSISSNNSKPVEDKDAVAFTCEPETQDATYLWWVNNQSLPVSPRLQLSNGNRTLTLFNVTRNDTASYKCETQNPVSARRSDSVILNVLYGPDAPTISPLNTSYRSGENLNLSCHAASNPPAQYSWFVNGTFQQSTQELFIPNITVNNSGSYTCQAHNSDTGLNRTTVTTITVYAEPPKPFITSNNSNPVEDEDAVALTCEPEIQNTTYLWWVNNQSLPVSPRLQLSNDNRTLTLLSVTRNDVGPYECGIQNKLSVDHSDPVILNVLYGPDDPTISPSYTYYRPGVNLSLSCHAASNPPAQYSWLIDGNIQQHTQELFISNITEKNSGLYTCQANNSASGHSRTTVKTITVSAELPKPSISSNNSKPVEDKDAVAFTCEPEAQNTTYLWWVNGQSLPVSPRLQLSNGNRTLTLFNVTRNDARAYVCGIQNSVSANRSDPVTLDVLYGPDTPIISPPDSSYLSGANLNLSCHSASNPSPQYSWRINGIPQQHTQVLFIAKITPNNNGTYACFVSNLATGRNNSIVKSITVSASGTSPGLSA
Nature of the experiment: flow cytometry on MKN45 cells (human CEA), Alexa Fluor 647 anti-human Fc secondary, frequency of A647+ cells. On the procedure:
Briefly, human PBMCs, isolated from either Buffy Coats or fresh blood from healthy human donors (as described in Example 5.1) were incubated in a humidified incubator at 37° C. for 48 hours in RPMI1640 medium including […] PHA-L (Roche, #11249738001) and 100 units/ml recombinant human IL-2 (“Proleukin”, Novartis) at a cell density of 1 million cells per ml.
At the day of the assay, pre-activated PBMCs cells were harvested, washed with PBS, and 0.2 million cells in FACS buffer (PBS with 0.1% BSA) were plated per well of a 96-round bottom-well plate. Likewise, adherent MKN45 tumor cells were detached using trypsin (Gibco, 25300-054), washed and 0.15 million cells were transferred into the 96-round bottom well-plate. […] Cells were washed with FACS buffer and the staining was fixed for 20 min at 4° C. in the dark, using 75 µl of 1% PFA in FACS buffer per well. Cells were washed again two times with FACS Buffer and re-suspended in FACS Buffer for analysis.
as §2

T1 sequence (P97321 whole entry): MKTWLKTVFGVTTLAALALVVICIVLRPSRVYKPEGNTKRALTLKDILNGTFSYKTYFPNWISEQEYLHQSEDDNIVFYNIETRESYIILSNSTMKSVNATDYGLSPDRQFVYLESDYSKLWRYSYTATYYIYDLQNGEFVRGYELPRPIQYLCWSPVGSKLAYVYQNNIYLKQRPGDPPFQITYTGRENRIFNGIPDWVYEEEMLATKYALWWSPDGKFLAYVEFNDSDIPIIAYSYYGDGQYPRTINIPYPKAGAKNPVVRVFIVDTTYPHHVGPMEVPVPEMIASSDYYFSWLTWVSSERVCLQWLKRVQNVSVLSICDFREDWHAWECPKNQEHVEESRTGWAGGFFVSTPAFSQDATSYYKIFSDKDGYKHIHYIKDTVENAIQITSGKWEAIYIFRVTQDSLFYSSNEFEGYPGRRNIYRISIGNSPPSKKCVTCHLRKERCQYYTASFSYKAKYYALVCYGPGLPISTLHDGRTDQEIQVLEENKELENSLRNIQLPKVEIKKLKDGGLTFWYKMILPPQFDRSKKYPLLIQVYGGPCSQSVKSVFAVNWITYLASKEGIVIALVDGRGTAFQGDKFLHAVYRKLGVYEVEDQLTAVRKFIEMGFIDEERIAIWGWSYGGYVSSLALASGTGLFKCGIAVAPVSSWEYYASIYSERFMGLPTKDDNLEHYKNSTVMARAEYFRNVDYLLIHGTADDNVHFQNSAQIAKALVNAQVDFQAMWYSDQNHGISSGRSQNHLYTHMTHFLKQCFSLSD

B1: ICOS(16E09)-FAP(28H1) 2+1, FAP-targeted anti-murine ICOS_2+1, mIgG1 DAPG, bivalent murine ICOS (16E09), monovalent FAP (28H1) (bispecific antibody)
heavy 1: EVQLVQSGAEVKKPGESLKISCKGSGYSFTSYWIGWVRQMPGKGLEWMGIIYPGDSDTRYSPSFQGQVTISADKSISTAYLQWSSLKASDTAMYYCARSSGPYGLYLDYWGQGTLVTVSSAKTTPPSVYPLAPGSAAQTNSMVTLGCLVKGYFPEPVTVTWNSGSLSSGVHTFPAVLQSDLYTLSSSVTVPSSTWPSQTVTCNVAHPASSTKVDKKIVPRDCGCKPCICTVPEVSSVFIFPPKPKDVLTITLTPKVTCVVVAISKDDPEVQFSWFVDDVEVHTAQTKPREEQINSTFRSVSELPIMHQDWLNGKEFKCRVNSAAFGAPIEKTISKTKGRPKAPQVYTIPPPKEQMAKDKVSLTCMITNFFPEDITVEWQWNGQPAENYDNTQPIMDTDGSYFVYSDLNVQKSNWEAGNTFTCSVLHEGLHNHHTEKSLSHSPGGGGGSGGGGSGGGGSGGGGSEIVLTQSPGTLSLSPGERATLSCRASQSVSRSYLAWYQQKPGQAPRLLIIGASTRATGIPDRFSGSGSGTDFTLTISRLEPEDFAVYYCQQGQVIPPTFGQGTKVEIK
heavy 2: EVQLVQSGAEVKKPGESLKISCKGSGYSFTSYWIGWVRQMPGKGLEWMGIIYPGDSDTRYSPSFQGQVTISADKSISTAYLQWSSLKASDTAMYYCARSSGPYGLYLDYWGQGTLVTVSSAKTTPPSVYPLAPGSAAQTNSMVTLGCLVKGYFPEPVTVTWNSGSLSSGVHTFPAVLQSDLYTLSSSVTVPSSTWPSQTVTCNVAHPASSTKVDKKIVPRDCGCKPCICTVPEVSSVFIFPPKPKDVLTITLTPKVTCVVVAISKDDPEVQFSWFVDDVEVHTAQTKPREEQINSTFRSVSELPIMHQDWLNGKEFKCRVNSAAFGAPIEKTISKTKGRPKAPQVYTIPPPKKQMAKDKVSLTCMITNFFPEDITVEWQWNGQPAENYKNTQPIMKTDGSYFVYSKLNVQKSNWEAGNTFTCSVLHEGLHNHHTEKSLSHSPGGGGGSGGGGSGGGGSGGGGSEVQLLESGGGLVQPGGSLRLSCAASGFTFSSHAMSWVRQAPGKGLEWVSAIWASGEQYYADSVKGRFTISRDNSKNTLYLQMNSLRAEDTAVYYCAKGWLGNFDYWGQGTLVTVSS
light: not shown
notes: Murine IgG1 DAPG DDKK; also called ICOS(16E09)-FAP(28H1) 2 + 1 muIgG1 DAPG
Take B1: the “EC50 (read off the curve)” value with murine FAP (mFAP) [1] is roughly 3 nM. Also, in the experiment with murine ICOS [2], the “Fold increase vs TCB only at 3 nM CEA- or FAP-ICOS, % CD69^+CD4^+” value was 1.1 fold; the “Fold increase vs TCB only at 3 nM CEA- or FAP-ICOS, % CD69^+CD8^+” value is 2.3 fold; the “Fold increase vs TCB only at 75 nM CEA- or FAP-ICOS, % CD69^+CD4^+” value turned out to be 1.1 fold; the “Fold increase vs TCB only at 75 nM CEA- or FAP-ICOS, % CD69^+CD8^+” value was 2.4 fold. In addition, a half-maximal effect with murine FAP (mFAP) [3] (EC50) was put at 2.86 nM. In the experiment with murine ICOS [4], this molecule registered an EC50 of 2.88 nM. The “EC50 (read off the curve)” value in the experiment with murine ICOS [5] is roughly 3 nM.

B2: ICOS(JMab136)-CEA(MEDI-565) 2+1, CEA-ICOS_2+1 huIgG1 P329G LALA, bivalent ICOS (JMAb136), monovalent CEA (MEDI-565) (bispecific antibody)
heavy 1: not shown
heavy 2: not shown
light: DIQMTQSPSSVSASVGDRVTITCRASQGISRLLAWYQQKPGKAPKLLIYVASSLQSGVPSRFSGSGSGTDFTLTISSLQPEDFATYYCQQANSFPWTFGQGTKVEIKRTVAAPSVFIFPPSDRKLKSGTASVVCLLNNFYPREAKVQWKVDNALQSGNSQESVTEQDSKDSTYSLSSTLTLSKADYEKHKVYACEVTHQGLSSPVTKSFNRGEC
notes: Human IgG1 P329G LALA, knob-into-hole; also called CEA(MEDI565)-ICOS(JMAb136)_2 + 1
On to B2, for which, in the experiment with human ICOS, the “Fold increase vs TCB only at 200 pM CEA-ICOS (% CD69^+CD4^+), Donor 1 (D1)” value is 5.17 fold; the “Fold increase vs TCB only at 200 pM CEA-ICOS (% CD69^+CD4^+), Donor 2 (D2)” value came to 2.86 fold; the “Fold increase vs TCB only at 1000 pM CEA-ICOS (% CD69^+CD4^+), Donor 1 (D1)” value stood at 5.52 fold; the “Fold increase vs TCB only at 1000 pM CEA-ICOS (% CD69^+CD4^+), Donor 2 (D2)” value turned out to be 1.99 fold. Moreover, the “EC50 (read off the curve)” value with human CEA was roughly 0.5 nM.

B3: ICOS(16E09)-FAP(28H1) 1+1, FAP-targeted anti-murine ICOS_1+1, mIgG1 DAPG, monovalent murine ICOS (16E09), monovalent FAP (28H1) (bispecific antibody)
heavy 1: EVQLVQSGAEVKKPGESLKISCKGSGYSFTSYWIGWVRQMPGKGLEWMGIIYPGDSDTRYSPSFQGQVTISADKSISTAYLQWSSLKASDTAMYYCARSSGPYGLYLDYWGQGTLVTVSSAKTTPPSVYPLAPGSAAQTNSMVTLGCLVEGYFPEPVTVTWNSGSLSSGVHTFPAVLQSDLYTLSSSVTVPSSTWPSQTVTCNVAHPASSTKVDEKIVPRDCGCKPCICTVPEVSSVFIFPPKPKDVLTITLTPKVTCVVVAISKDDPEVQFSWFVDDVEVHTAQTKPREEQINSTFRSVSELPIMHQDWLNGKEFKCRVNSAAFGAPIEKTISKTKGRPKAPQVYTIPPPKEQMAKDKVSLTCMITNFFPEDITVEWQWNGQPAENYDNTQPIMDTDGSYFVYSDLNVQKSNWEAGNTFTCSVLHEGLHNHHTEKSLSHSP
heavy 2: EIVLTQSPGTLSLSPGERATLSCRASQSVSRSYLAWYQQKPGQAPRLLIIGASTRATGIPDRFSGSGSGTDFTLTISRLEPEDFAVYYCQQGQVIPPTFGQGTKVEIKSSAKTTPPSVYPLAPGSAAQTNSMVTLGCLVKGYFPEPVTVTWNSGSLSSGVHTFPAVLQSDLYTLSSSVTVPSSTWPSQTVTCNVAHPASSTKVDKKIVPRDCGCKPCICTVPEVSSVFIFPPKPKDVLTITLTPKVTCVVVAISKDDPEVQFSWFVDDVEVHTAQTKPREEQINSTFRSVSELPIMHQDWLNGKEFKCRVNSAAFGAPIEKTISKTKGRPKAPQVYTIPPPKKQMAKDKVSLTCMITNFFPEDITVEWQWNGQPAENYKNTQPIMKTDGSYFVYSKLNVQKSNWEAGNTFTCSVLHEGLHNHHTEKSLSHSP
light 1: not shown
light 2: EVQLLESGGGLVQPGGSLRLSCAASGFTFSSHAMSWVRQAPGKGLEWVSAIWASGEQYYADSVKGRFTISRDNSKNTLYLQMNSLRAEDTAVYYCAKGWLGNFDYWGQGTLVTVSSASDAAPTVSIFPPSSEQLTSGGASVVCFLNNFYPKDINVKWKIDGSERQNGVLNSWTDQDSKDSTYSMSSTLTLTKDEYERHNSYTCEATHKTSTSPIVKSFNRNEC
notes: Murine IgG1 DAPG DDKK; also called ICOS(16E09)-FAP(28H1) 1 + 1 muIgG1 DAPG
B3: the “EC50 (read off the curve)” value with murine FAP (mFAP) [1] was roughly 0.1 nM. Also, in the experiment with murine ICOS [2], the “Fold increase vs TCB only at 3 nM CEA- or FAP-ICOS, % CD69^+CD4^+” value came out at 1.2 fold; the “Fold increase vs TCB only at 3 nM CEA- or FAP-ICOS, % CD69^+CD8^+” value was 1.9 fold; the “Fold increase vs TCB only at 75 nM CEA- or FAP-ICOS, % CD69^+CD4^+” value turned out to be 1.2 fold; the “Fold increase vs TCB only at 75 nM CEA- or FAP-ICOS, % CD69^+CD8^+” value stood at 1.9 fold. The molecule further came in with an EC50 in the experiment with murine FAP (mFAP) [3] of 0.142 nM. In the experiment with murine ICOS [4], this molecule yielded an EC50 of 17.1 nM.

Source of the values: patent US20200306373A1 (Hoffmann-La Roche, published 2020).
